Experiment [1] deals with T1, streptavidin (UniProt P22629 37-163, limits assumed).
T1 construct: It was used without a stated label in the sandwich assays; also called SA
Put plainly: sandwich assay: SA in 50% urine, biotin-HRP/TMB detection. As for the experimental part:
Each well was submerged in 1 mL of 1% BSA in Milli-Q water, and the 12-well plate was incubated at 37° C. for 30 minutes. The wells were rinsed twice by adding 2 mL of Milli-Q water and gently shaking the well plate at 70 rpm for 5 minutes. 1 mL of streptavidin diluted in PBS, urine, or blood serum (prepared as described in the Fluorescent Assays section) containing 0.1% BSA was then added to each well, and the well plate was shaken at 70 rpm for 4 hours at room temperature. Wells were rinsed twice with 2 mL of Milli-Q water then twice with 2 mL of 0.1% BSA in Milli-Q water by shaking at 70 rpm for 5 minutes. After rinsing, wells were submerged in 1 mL of 200 ng/mL biotin-HRP in Milli-Q water containing 0.1% BSA, and the well plate was shaken at 70 rpm for 1 hour at room temperature. Wells were then rinsed with water and 0.1% BSA as described previously. 1 mL of solution from a Pierce TMB substrate kit (Thermo Fisher Scientific) was added to each well, and the well plate was shaken vigorously at 125 rpm for 15 minutes at room temperature. 1 mL of 2M H2SO4 was added to each well, and the absorbance at 450 nm was read using a Tecan Infinite M200 PRO plate reader.
The general procedure for this proof-of-concept experiment is diagrammed in FIG. 28. Films were first exposed to SA solutions and rinsed to remove unbound analyte. Taking advantage of the strong interaction between SA and biotin, thin films were then submerged in a solution of biotinylated horseradish peroxidase (biotin-HRP). Bound SA was detected colorimetrically through the HRP-mediated oxidation of 3,3′,5,5′-tetramethylbenzidine (TMB). Attempts to perform this assay using mSA2 as the analyte were unsuccessful, even when run on an rcSso7d.SA monolayer.

In experiment [2] the target is monomeric streptavidin variant mSA2. Put plainly: fluorescent binding curve, labeled mSA2 in 50% urine, 4 h; quadratic fit.
Experiment [3] deals with T1, streptavidin. Put plainly: fluorescent binding curve, labeled SA in PBS, 4 h exposure; quadratic fit.
The target of experiment [4] is monomeric streptavidin variant mSA2. Nature of the experiment: fluorescent binding curve, labeled mSA2 in PBS, 4 h exposure; quadratic fit. As for the experimental part:
(§1) The binding function of rcSso7d.SA oligomer-PNIPAM thin films was measured using fluorescently-labeled monomeric streptavidin (mSA2) and fluorescently-labeled streptavidin (SA). Details for the expression, purification, and fluorescent labeling of mSA2 are provided below. Samples were prepared by serial dilution of SA or mSA2 in PBS (pH 7.4), human urine (diluted to 50% v/v in PBS, pH 7.4), or blood serum (obtained as the supernatant by centrifuging whole blood at 1500×g for 10 minutes, then diluted to 50% v/v in PBS, pH 7.4). 0.5 μL drops of solutions containing serially diluted fluorescent mSA2 and fluorescent SA samples in PBS (pH 7.4) were gently applied to the surface of each bioconjugate thin film. Films were incubated in a sealed chamber saturated with water vapor at room temperature to prevent to prevent drying of the applied fluorescent samples. […] Fluorescence microscopy images were acquired at 4× magnification using a Cy5 filter set and exposure time of 5000 ms on an Olympus IX-81 inverted fluorescence microscope with an AxioCam HRC CCD camera. Fluorescent intensity was calculated using ImageJ software⁶⁷ by determining the average fluorescent signal in a rectangular area of the fluorescent image free of defects and occupying no less than half of the full sample application area.
(§2) To evaluate how the apparent size-based diffusion properties translated to biosensing capabilities, binding curves were measured using SA and mSA2 solutions in buffer. Binding curves were fit with a quadratic model that is a function of three parameters: the average MFI per binding event a, the total concentration of binding sites [P]T, and the apparent dissociation constant K_{d,app} describing the binding equilibrium between analyte and binding sites within the thin film.

In experiment [5] the target is T1, streptavidin. Put plainly: fluorescent binding curve, labeled SA in 50% blood serum, 4 h; quadratic fit.
The target in experiment [6] is monomeric streptavidin variant mSA2. Nature of the experiment: fluorescent binding assay, labeled mSA2 in PBS on monolayer; quadratic curve fit. Here is the method:
(§3) The binding function of rcSso7d.SA oligomer-PNIPAM thin films was measured using fluorescently-labeled monomeric streptavidin (mSA2) and fluorescently-labeled streptavidin (SA). Details for the expression, purification, and fluorescent labeling of mSA2 are provided below. Samples were prepared by serial dilution of SA or mSA2 in PBS (pH 7.4), human urine (diluted to 50% v/v in PBS, pH 7.4), or blood serum (obtained as the supernatant by centrifuging whole blood at 1500×g for 10 minutes, then diluted to 50% v/v in PBS, pH 7.4). 0.5 μL drops of solutions containing serially diluted fluorescent mSA2 and fluorescent SA samples in PBS (pH 7.4) were gently applied to the surface of each bioconjugate thin film. […] After 1 hour, films were thoroughly rinsed with water for 10 seconds (a time determined to be sufficient to remove unbound molecules from the film, see FIG. 33, dried under filtered airflow, and immediately analyzed for fluorescent signal. Fluorescence microscopy images were acquired at 4× magnification using a Cy5 filter set and exposure time of 5000 ms on an Olympus IX-81 inverted fluorescence microscope with an AxioCam HRC CCD camera. Fluorescent intensity was calculated using ImageJ software⁶⁷ by determining the average fluorescent signal in a rectangular area of the fluorescent image free of defects and occupying no less than half of the full sample application area. […]

Experiment [7] shares this target. Put plainly: apparent Kd (Kd,app); fluorescent binding curve, labeled mSA2 in 50% urine, 4 h; quadratic fit.
The target is the same in experiment [8]. Nature of the experiment: apparent Kd (Kd,app); fluorescent binding curve, labeled mSA2 in PBS, 4 h exposure; quadratic fit. Here is the method: as §1, §2
Experiment [9] concerns the target T1, streptavidin. Nature of the experiment: apparent Kd (Kd,app); fluorescent binding curve, labeled SA in 50% blood serum, 4 h; quadratic fit.
Experiment [10] deals with monomeric streptavidin variant mSA2. Put plainly: apparent Kd (Kd,app); fluorescent binding curve, labeled mSA2 in 50% blood serum, 4 h; quadratic fit.
For experiment [11] the target is unchanged. Put plainly: fluorescent binding assay: labeled mSA2 in PBS applied to the protein monolayer, rinsed, fluorescence microscopy. Here is the method:
as §3

The source of these data is patent US20200057058A1 (MIT, published 2020).

T1 sequence (P22629 37-163 limits assumed): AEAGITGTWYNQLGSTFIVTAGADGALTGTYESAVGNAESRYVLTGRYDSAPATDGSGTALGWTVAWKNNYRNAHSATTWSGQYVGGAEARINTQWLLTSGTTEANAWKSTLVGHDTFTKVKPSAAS

B1: rcSso7d.SA monolayer (designed binder)
chain: MGSIHHHHHHSSGLVPRGSHMCATVKFTYQGEEKQVDISKIKIVARDGQYIDFKYDEGGGAYGYGWVSEKDAPKELLQMLEKQ
modifications: EDC/NHS-activated protein coupled to an amine-functionalized silicon wafer
notes: also called monomeric rcSso7d.SA; surface-immobilized rcSso7d.SA
B1: the LOD in experiment [1] stood at 32 nM. The “[P]T (total concentration of binding sites)” value was determined as 0.4 nM in experiment [2], 0.36 nM in experiment [3], 0.35 nM in experiment [4] and 0.28 nM in experiment [5]. The Kd in experiment [6] is 2 µM; in experiment [7], 50 µM; in [8], 3 µM; in experiment [9], 40 µM; in experiment [10], 62 µM. In addition, the “EC50 (read off the curve)” value in experiment [11] was around 2 µM.

One may read the EC50 (read off the curve) as the concentration needed to bring the measured effect to its halfway point. A low value points to a more potent agent.
